Experimental data reported in patent US20190046600A1 (published 2019).
Square brackets hold non-standard residues; d marks the D form. Phe(4-guanidino) = N=C(N)Nc1ccc(C[C@H](N)C(=O)O)cc1

Biological target: Lactate dehydrogenase A [LDHA] (human, UniProt P00338 2-332)
Test: cell-based or functional assay

| Binder | IC50 of LDH activity (Abcam LDH activity kit, lysates of NCI-H460 cells treated for 24 or 96 h) [µM] |
| --- | --- |
| cyclo(PRGPRPVWW[Phe(4-guanidino)][Phe(4-guanidino)]WW[Phe(4-guanidino)][Phe(4-guanidino)]WW) [HILR-030 (cyclo-[Pro-Arg-Gly-Pro-Arg-Pro-Val-Trp-Trp-Gpa-Gpa-Trp-Trp-Gpa-Gpa-Trp-Trp])] | 22 |
| PRGPRPVWWRRWWRRWW (cyclic peptide (cyclo-[...])) [HILR-025 (cyclo-[Pro-Arg-Gly-Pro-Arg-Pro-Val-Trp-Trp-Arg-Arg-Trp-Trp-Arg-Arg-Trp-Trp])] | 16 |
